Experimental findings from the supplement of paper PMC11316812 are described below.

The subject of one series is hTERT-HMEC. The experiment in a line: percentage of EdU-negative (G0-arrested) nuclei per well, 72 h; higher = more G0 arrest. Conditions: reference: sequence is the full UniProt precursor, the tested protein was the secreted form or ectodomain.
A further series has as its system MCF7. The series is described as above. Conditions: reference: sequence is the full UniProt precursor, the tested protein was the secreted form or ectodomain.
The mark [1] stands for this setting: protein concentration 0.03125 µM.
[2] abbreviates: protein concentration 0.3125 µM.
[3] abbreviates: protein concentration 0.0225 µM.
[4] abbreviates: protein concentration 0.02075 µM.
Setting [5] is: protein concentration 0.2075 µM.
Setting [6] is: protein concentration 0.0282857 µM.
The mark [7] stands for this setting: protein concentration 0.282857 µM.
Where [8] appears, read: protein concentration 0.0214725 µM.
Where [9] appears, read: protein concentration 0.214725 µM.

± gives the standard deviation of the averaged measurements.
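Further: secreted proteins added to cultured cells, EdU pulse at the end, nuclei found by Hoechst imaging, EdU status from nuclear versus surrounding ring intensity ratio, PBS as neutral control.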

For the sequence “MRARRGLLRLPRRSLLAALFFFSLSSSLLYFVYVAPGIVNTYLFMMQAQGILIRDNVRTIGAQVYEQVLRSAYAKRNSSVNDSDYPLDLNHSETFLQTTTFLPEDFTYFANHTCPERLPSMKGPIDINMSEIGMDYIHELFSKDPTIKLGGHWKPSDCMPRWKVAILIPFRNRHEHLPVLFRHLLPMLQRQRLQFAFYVVEQVGTQPFNRAMLFNVGFQEAMKDLDWDCLIFHDVDHIPESDRNYYGCGQMPRHFATKLDKYMYLLPYTEFFGGVSGLTVEQFRKINGFPNAFWGWGGEDDDLWNRVQNAGYSVSRPEGDTGKYKSIPHHHRGEVQFLGRYALLRKSKERQGLDGLNNLNYFANITYDALYKNITVNLTPELAQVNEY”, the “percentage of EdU-negative” value with hTERT-HMEC (protein concentration 0.016 µM) turned out to be 5.58 ± 0.37%; in the series with hTERT-HMEC (protein concentration 0.16 µM), 20.8 ± 1.2%; in the series with MCF7 (protein concentration 0.016 µM) it was 24.5 ± 0.93%; in the series on MCF7 (protein concentration 0.16 µM) it was 30.8 ± 1.6%.

As to “MAAPALSWRLPLLILLLPLATSWASAAVNGTSQFTCFYNSRANISCVWSQDGALQDTSCQVHAWPDRRRWNQTCELLPVSQASWACNLILGAPDSQKLTTVDIVTLRVLCREGVRWRVMAIQDFKPFENLRLMAPISLQVVHVETHRCNISWEISQASHYFERHLEFEARTLSPGHTWEEAPLLTLKQKQEWICLETLTPDTQYEFQVRVKPLQGEFTTWSPWSQPLAFRTKPAALGKDTIPWLGHLLVGLSGAFGFIILVYLLINCRNTGPWLKKVLKCNTPDPSKFFSQLSSEHGGDVQKWLSSPFPSSSFSPGGLAPEISPLEVLERDKVTQLLLQQDKVPEPASLSSNHSLTSCFTNQGYFFFHLPDALEIEACQVYFTYDPYSEEDPDEGVAGAPTGSSPQPLQPLSGEDDAYCTFPSRDDLLLFSPSLLGGPSPPSTAPGGSGAGEERMPPSLQERVPRDWDPQPLGPPTPGVPDLVDFQPPPELVLREAGEEVPDAGPREGVSFPWSRPPGQGEFRALNARLPLNTDAYLSLQELQGQDPTHLV”, the “percentage of EdU-negative” value in the series with hTERT-HMEC (setting [1]) came to 4.64 ± 0.89%; in the series with hTERT-HMEC (setting [2]) it was 4.91 ± 0.7%; in the series on MCF7 (setting [1]) it was 25.8 ± 3.7%; with MCF7 (setting [2]), 26.1 ± 1.1%.

On to “MAPISLSWLLRLATFCHLTVLLAGQHHGVTKCNITCSKMTSKIPVALLIHYQQNQASCGKRAIILETRQHRLFCADPKEQWVKDAMQHLDRQAAALTRNGGTFEKQIGEVKPRTTPAAGGMDESVVLEPEATGESSSLEPTPSSQEAQRALGTSPELPTGVTGSSGTRLPPTPKAQDGGPVGTELFRVPPVSTAATWQSSAPHQPGPSLWAEAKTSEAPSTQDPSTQASTASSPAPEENAPSEGQRVWGQGQSPRPENSLEREEMGPVPAHTDAFQDWGPGSMAHVSVVPVSSEGTPSREPVASGSWTPKAEEPIHATMDPQRLGVLITPVPDAQAATRRQAVGLLAFLGLLFCLGVAMFTYQSLQGCPRKMAGEMAEGLRYIPRSCGSNSYVLVPV”, for which the “percentage of EdU-negative” value in the series on hTERT-HMEC (setting [3]) was 4.91 ± 0.028%; with hTERT-HMEC (protein concentration 0.225 µM) it was 5.92 ± 0.33%; in the series with MCF7 (setting [3]) it was 24.7 ± 2.4%; in the series on MCF7 (protein concentration 0.225 µM) it was 25.18 ± 0.043%.

In the case of “MATSMGLLLLLLLLLTQPGAGTGADTEAVVCVGTACYTAHSGKLSAAEAQNHCNQNGGNLATVKSKEEAQHVQRVLAQLLRREAALTARMSKFWIGLQREKGKCLDPSLPLKGFSWVGGGEDTPYSNWHKELRNSCISKRCVSLLLDLSQPLLPSRLPKWSEGPCGSPGSPGSNIEGFVCKFSFKGMCRPLALGGPGQVTYTTPFQTTSSSLEAVPFASAANVACGEGDKDETQSHYFLCKEKAPDVFDWGSSGPLCVSPKYGCNFNNGGCHQDCFEGGDGSFLCGCRPGFRLLDDLVTCASRNPCSSSPCRGGATCVLGPHGKNYTCRCPQGYQLDSSQLDCVDVDECQDSPCAQECVNTPGGFRCECWVGYEPGGPGEGACQDVDECALGRSPCAQGCTNTDGSFHCSCEEGYVLAGEDGTQCQDVDECVGPGGPLCDSLCFNTQGSFHCGCLPGWVLAPNGVSCTMGPVSLGPPSGPPDEEDKGEKEGSTVPRAATASPTRGPEGTPKATPTTSRPSLSSDAPITSAPLKMLAPSGSPGVWREPSIHHATAASGPQEPAGGDSSVATQNNDGTDGQKLLLFYILGTVVAILLLLALALGLLVYRKRRAKREEKKEKKPQNAADSYSWVPERAESRAMENQYSPTPGTDC [Q9NPY3]”, the “percentage of EdU-negative” value came to 5.36 ± 0.65% with hTERT-HMEC (setting [3]), 4.92 ± 0.54% in the series on hTERT-HMEC (protein concentration 0.225 µM), 25.7 ± 0.77% in the series on MCF7 (setting [3]) and 26.9 ± 0.77% in the series with MCF7 (protein concentration 0.225 µM).

With “MAFVCLAIGCLYTFLISTTFGCTSSSDTEIKVNPPQDFEIVDPGYLGYLYLQWQPPLSLDHFKECTVEYELKYRNIGSETWKTIITKNLHYKDGFDLNKGIEAKIHTLLPWQCTNGSEVQSSWAETTYWISPQGIPETKVQDMDCVYYNWQYLLCSWKPGIGVLLDTNYNLFYWYEGLDHALQCVDYIKADGQNIGCRFPYLEASDYKDFYICVNGSSENKPIRSSYFTFQLQNIVKPLPPVYLTFTRESSCEIKLKWSIPLGPIPARCFDYEIEIREDDTTLVTATVENETYTLKTTNETRQLCFVVRSKVNIYCSDDGIWSEWSDKQCWEGEDLSKKTLLRFWLPFGFILILVIFVTGLLLRKPNTYPKMIPEFFCDT”, the “percentage of EdU-negative” value worked out at 4.91 ± 0.34% in the series on hTERT-HMEC (setting [4]), 9.86 ± 0.6% with hTERT-HMEC (setting [5]), 26.8 ± 0.36% in the series with MCF7 (setting [4]) and 29.3 ± 0.53% in the series on MCF7 (setting [5]).

With “MSSWSRQRPKSPGGIQPHVSRTLFLLLLLAASAWGVTLSPKDCQVFRSDHGSSISCQPPAEIPGYLPADTVHLAVEFFNLTHLPANLLQGASKLQELHLSSNGLESLSPEFLRPVPQLRVLDLTRNALTGLPPGLFQASATLDTLVLKENQLEVLEVSWLHGLKALGHLDLSGNRLRKLPPGLLANFTLLRTLDLGENQLETLPPDLLRGPLQLERLHLEGNKLQVLGKDLLLPQPDLRYLFLNGNKLARVAAGAFQGLRQLDMLDLSNNSLASVPEGLWASLGQPNWDMRDGFDISGNPWICDQNLSDLYRWLQAQKDKMFSQNDTRCAGPEAVKGQTLLAVAKSQ”, the “percentage of EdU-negative” value was 4.97 ± 0.88% in the series with hTERT-HMEC (setting [6]), 6.814 ± 0.037% with hTERT-HMEC (setting [7]), 22.3 ± 2.4% with MCF7 (setting [6]) and 25.7 ± 1.4% in the series with MCF7 (setting [7]).

For “MIHGRSVLHIVASLIILHLSGATKKGTEKQTTSETQKSVQCGTWTKHAEGGIFTSPNYPSKYPPDRECIYIIEAAPRQCIELYFDEKYSIEPSWECKFDHIEVRDGPFGFSPIIGRFCGQQNPPVIKSSGRFLWIKFFADGELESMGFSARYNFTPDPDFKDLGALKPLPACEFEMGGSEGIVESIQIMKEGKATASEAVDCKWYIRAPPRSKIYLRFLDYEMQNSNECKRNFVAVYDGSSSVEDLKAKFCSTVANDVMLRTGLGVIRMWADEGSRNSRFQMLFTSFQEPPCEGNTFFCHSNMCINNTLVCNGLQNCVYPWDENHCKEKRKTSLLDQLTNTSGTVIGVTSCIVIILIIISVIVQIKQPRKKYVQRKSDFDQTVFQEVFEPPHYELCTLRGTGATADFADVADDFENYHKLRRSSSKCIHDHHCGSQLSSTKGSRSNLSTRDASILTEMPTQPGKPLIPPMNRRNILVMKHSYSQDAADACDIDEIEEVPTTSHRLSRHDKAVQRFCLIGSLSKHESEYNTTRV [Q8TDF5]”, the “percentage of EdU-negative” value in the series with hTERT-HMEC (setting [8]) came out at 4.64 ± 0.48%; in the series with hTERT-HMEC (setting [9]), 7.76 ± 0.38%; with MCF7 (setting [8]), 23.53 ± 0.037%; with MCF7 (setting [9]), 26.76 ± 0.058%.

“MAVFKTTLWRLISGTLGIICLSLMSTLGILLKNSFTKLSIEPAFTPGPNIELQKDSDCCSCQEKWVGYRCNCYFISSEQKTWNESRHLCASQKSSLLQLQNTDELDFMSSSQQFYWIGLSYSEEHTAWLWENGSALSQYLFPSFETFNTKNCIAYNPNGNALDESCEDKNRYICKQQLI”: the “percentage of EdU-negative” value in the series with hTERT-HMEC (setting [3]) turned out to be 4.98 ± 0.64%; with hTERT-HMEC (protein concentration 0.225 µM), 5.53 ± 0.17%; in the series on MCF7 (setting [3]) it was 26.6 ± 3%; with MCF7 (protein concentration 0.225 µM) it was 25.3 ± 3.1%.

For “MAAPSGGWNGVGASLWAALLLGAVALRPAEAVSEPTTVAFDVRPGGVVHSFSHNVGPGDKYTCMFTYASQGGTNEQWQMSLGTSEDHQHFTCTIWRPQGKSYLYFTQFKAEVRGAEIEYAMAYSKAAFERESDVPLKTEEFEVTKTAVAHRPGAFKAELSKLVIVAKASRTEL [Q969H8]”, the “percentage of EdU-negative” value came out at 4.64 ± 1% in the series with hTERT-HMEC (setting [1]), 5.57 ± 0.44% in the series on hTERT-HMEC (setting [2]), 25.7 ± 1.8% in the series on MCF7 (setting [1]) and 24.42 ± 0.17% with MCF7 (setting [2]).

Take “MARLALSPVPSHWMVALLLLLSAEPVPAARSEDRYRNPKGSACSRIWQSPRFIARKRGFTVKMHCYMNSASGNVSWLWKQEMDENPQQLKLEKGRMEESQNESLATLTIQGIRFEDNGIYFCQQKCNNTSEVYQGCGTELRVMGFSTLAQLKQRNTLKDGIIMIQTLLIILFIIVPIFLLLDKDDSKAGMEEDHTYEGLDIDQTATYEDIVTLRTGEVKWSVGEHPGQE”: the “percentage of EdU-negative” value was determined as 5.71 ± 0.54% in the series on hTERT-HMEC (setting [3]), 8.95 ± 0.22% in the series with hTERT-HMEC (protein concentration 0.225 µM), 25.5 ± 0.14% with MCF7 (setting [3]) and 26.8 ± 0.87% with MCF7 (protein concentration 0.225 µM).

As to “MLQLWKLVLLCGVLTGTSESLLDNLGNDLSNVVDKLEPVLHEGLETVDNTLKGILEKLKVDLGVLQKSSAWQLAKQKAQEAEKLLNNVISKLLPTNTDIFGLKISNSLILDVKAEPIDDGKGLNLSFPVTANVTVAGPIIGQIINLKASLDLLTAVTIETDPQTHQPVAVLGECASDPTSISLSLLDKHSQIINKFVNSVINTLKSTVSSLLQKEICPLIRIFIHSLDVNVIQQVVDNPQHKTQLQTLI [Q96DR5]”, the “percentage of EdU-negative” value in the series on hTERT-HMEC (setting [3]) was 4.84 ± 0.42%; in the series on hTERT-HMEC (protein concentration 0.225 µM), 4.68 ± 0.1%; in the series with MCF7 (setting [3]) it was 27.4 ± 1.7%; in the series with MCF7 (protein concentration 0.225 µM) it was 27.4 ± 1.2%.
